From article PMC11096372

Each sequence was assayed against Cas8b;Cas7b;Cas5b;Cas6b;Cas11b (Synechocystis sp. PCC 6714;Synechocystis sp. PCC 6714;Synechocystis sp. PCC 6714;Synechocystis sp. PCC 6714;Synechocystis sp. PCC 6714) (UniProt A0A068N831+A0A068N458+A0A068N1Y0+A0A068N831) (assay: EMSA). Settings: crRNA-loaded Cascade; EMSA: 10 nM labeled DNA, Cascade 0-200 nM, 20 mM HEPES pH 7.5, 100 mM NaCl, 25 C, 1 h; 6% acrylamide gel, 0.5x TBE, cold room; Hill fit.

Row | Sequence | Kd [nM]
1 | TAATACGACTCACTATAGGTCGCGGATCCACATTTATCACCGTGTCCCCAATCTGGATATTTTGTGTCTCGAGCACCACCGCTGAGCAATAACTAGC (double strand) [ACA-PAM 97 bp (synPAM-9)] | 56.2
2 | TAATACGACTCACTATAGGTCGCGGATCCACCTTTATCACCGTGTCCCCAATCTGGATATTTTGTGTCTCGAGCACCACCGCTGAGCAATAACTAGC (double strand) [ACC-PAM 97 bp (synPAM-11)] | 58.2
3 | TAATACGACTCACTATAGGTCGCGGATCCACGTTTATCACCGTGTCCCCAATCTGGATATTTTGTGTCTCGAGCACCACCGCTGAGCAATAACTAGC (double strand) [ACG-PAM 97 bp (synPAM-10)] | 20.6
4 | TAATACGACTCACTATAGGTCGCGGATCCACTTTTATCACCGTGTCCCCAATCTGGATATTTTGTGTCTCGAGCACCACCGCTGAGCAATAACTAGC (double strand) [ACT-PAM 97 bp (synPAM-12)] | 140
5 | TAATACGACTCACTATAGGTCGCGGATCCATATTTATCACCGTGTCCCCAATCTGGATATTTTGTGTCTCGAGCACCACCGCTGAGCAATAACTAGC (double strand) [ATA-PAM 97 bp (synPAM-13)] | 24
6 | TAATACGACTCACTATAGGTCGCGGATCCATCTTTATCACCGTGTCCCCAATCTGGATATTTTGTGTCTCGAGCACCACCGCTGAGCAATAACTAGC (double strand) [ATC-PAM 97 bp (synPAM-15)] | 47.7
7 | TAATACGACTCACTATAGGTCGCGGATCCATGTTTATCACCGTGTCCCCAATCTGGATATTTTGTGTCTCGAGCACCACCGCTGAGCAATAACTAGC (double strand) [ATG-PAM 97 bp (synPAM-14)] | 18
8 | TAATACGACTCACTATAGGTCGCGGATCCATTTTTATCACCGTGTCCCCAATCTGGATATTTTGTGTCTCGAGCACCACCGCTGAGCAATAACTAGC (double strand) [ATT-PAM 97 bp (synPAM-16)] | 59.7
